# Assay results from publication PMC6322571, “CARK1 phosphorylates subfamily III members of ABA receptors” (Journal of Experimental Botany, 2018).
# T1: His-CARK1-KD (CARK1 kinase domain, residues 50-353) (Arabidopsis thaliana, UniProt Q9LUT0 50-353)
# T1 construct: Cytosolic ABA Receptor Kinase 1 (CARK1), Arabidopsis, kinase domain, residues 50-353; also called Cytosolic ABA Receptor Kinase 1 kinase domain; source: E. coli Rosetta (DE3), purified as previously described (Zhang et al., 2018)
# T1 sequence (looked up): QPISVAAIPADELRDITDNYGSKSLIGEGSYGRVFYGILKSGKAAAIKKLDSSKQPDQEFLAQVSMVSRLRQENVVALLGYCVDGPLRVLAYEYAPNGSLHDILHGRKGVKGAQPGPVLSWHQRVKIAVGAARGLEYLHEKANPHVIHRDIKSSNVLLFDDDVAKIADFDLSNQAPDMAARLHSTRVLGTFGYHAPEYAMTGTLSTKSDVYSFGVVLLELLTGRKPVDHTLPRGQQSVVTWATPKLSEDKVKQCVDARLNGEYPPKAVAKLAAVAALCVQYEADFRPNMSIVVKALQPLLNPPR
# B1: GST-RCAR12 (receptor, Arabidopsis thaliana, UniProt Q8VZS8 1-221, looked up)
# chain: MANSESSSSPVNEEENSQRISTLHHQTMPSDLTQDEFTQLSQSIAEFHTYQLGNGRCSSLLAQRIHAPPETVWSVVRRFDRPQIYKHFIKSCNVSEDFEMRVGCTRDVNVISGLPANTSRERLDLLDDDRRVTGFSITGGEHRLRNYKSVTTVHRFEKEEEEERIWTVVLESYVVDVPEGNSEEDTRLFADTVIRLNLQKLASITEAMNRNNNNNNSSQVR
# notes: ABA receptor RCAR12 (PYL1), Arabidopsis, subfamily III; also called PYL1; source: E. coli Rosetta (DE3), purified as GST-tag protein; not shown: GST, N-terminal, kept
# B2: GST-RCAR13 (receptor, Arabidopsis thaliana, UniProt Q9SSM7 1-209, looked up)
# chain: MNLAPIHDPSSSSTTTTSSSTPYGLTKDEFSTLDSIIRTHHTFPRSPNTCTSLIAHRVDAPAHAIWRFVRDFANPNKYKHFIKSCTIRVNGNGIKEIKVGTIREVSVVSGLPASTSVEILEVLDEEKRILSFRVLGGEHRLNNYRSVTSVNEFVVLEKDKKKRVYSVVLESYIVDIPQGNTEEDTRMFVDTVVKSNLQNLAVISTASPT
# notes: ABA receptor RCAR13, Arabidopsis, subfamily III; source: E. coli Rosetta (DE3), purified as GST-tag protein; not shown: GST, N-terminal, kept
# B3: GST-RCAR14 (receptor, Arabidopsis thaliana, UniProt O80992 1-190, looked up)
# chain: MSSSPAVKGLTDEEQKTLEPVIKTYHQFEPDPTTCTSLITQRIHAPASVVWPLIRRFDNPERYKHFVKRCRLISGDGDVGSVREVTVISGLPASTSTERLEFVDDDHRVLSFRVVGGEHRLKNYKSVTSVNEFLNQDSGKVYTVVLESYTVDIPEGNTEEDTKMFVDTVVKLNLQKLGVAATSAPMHDDE
# notes: ABA receptor RCAR14, Arabidopsis, subfamily III; source: E. coli Rosetta (DE3), purified as GST-tag protein; not shown: GST, N-terminal, kept
# Target: T1, His-CARK1-KD (CARK1 kinase domain, …)
# Test: pull-down; GST-RCARs bound to glutathione Sepharose 4B resin; His-CARK1-KD or His-CARK1-KD^N204A co-incubated 1 h at room temperature; 50 ug of each protein; SDS-PAGE and anti-His blot
# Conditions: both partners purified
row,Binder,binding result
1,B1,binds
2,B2,binds
3,B3,binds
